Molecular target: T1, I-A(b) MHC II molecule (;mouse, UniProt P14434 24-218; P14483 28-226)
T1 construct: Custom-prepared PE-labeled tetramer
T1 sequence (MHC II alpha): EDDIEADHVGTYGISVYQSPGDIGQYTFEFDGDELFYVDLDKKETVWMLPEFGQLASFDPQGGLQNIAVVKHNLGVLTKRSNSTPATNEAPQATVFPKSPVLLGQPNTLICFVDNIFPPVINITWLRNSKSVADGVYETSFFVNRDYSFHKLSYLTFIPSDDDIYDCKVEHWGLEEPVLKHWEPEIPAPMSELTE
T1 sequence (MHC II beta): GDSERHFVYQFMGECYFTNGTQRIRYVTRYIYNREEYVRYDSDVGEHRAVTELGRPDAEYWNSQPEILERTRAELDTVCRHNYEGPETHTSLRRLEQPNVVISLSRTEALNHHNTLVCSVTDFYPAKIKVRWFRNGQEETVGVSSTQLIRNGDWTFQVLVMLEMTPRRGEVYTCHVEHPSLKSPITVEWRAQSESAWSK
Experiment: peptide binding to MHC II during preparation of I-A(b) tetramers; method not described

B1: DlaT 245-259 peptide (VAPPAPVAPSAPVAA) (peptide)
peptide: VAPPAPVAPSAPVAA
notes: Synthetic 15-mer; It was loaded in a custom PE-labeled I-A(b) tetramer; also called Tetramer DlaT^245 peptide; pep of dihydrolipoamide acyltransferase
B1: binds.
